Biological target: UBR5 (UniProt O95071)
Assay: co-immunoprecipitation, immunoblot
Conditions: reference: wild type SIRT7; sites T255,S259

- binding against the reference: stronger
Substance: SIRT7 (from UniProt Q9NRC8) SIRT7-2A (T255A/S259A)
